Measurements: PMC2768832 (The Journal of Cell Biology, 2009)

Biological target: p97/VCP-His, recombinant full-length mouse p97/VCP (mouse, UniProt Q01853 1-806)
Experiment: pull-down

Chain of p97/VCP-His, recombinant full-length mouse p97/VCP (Q01853 whole entry): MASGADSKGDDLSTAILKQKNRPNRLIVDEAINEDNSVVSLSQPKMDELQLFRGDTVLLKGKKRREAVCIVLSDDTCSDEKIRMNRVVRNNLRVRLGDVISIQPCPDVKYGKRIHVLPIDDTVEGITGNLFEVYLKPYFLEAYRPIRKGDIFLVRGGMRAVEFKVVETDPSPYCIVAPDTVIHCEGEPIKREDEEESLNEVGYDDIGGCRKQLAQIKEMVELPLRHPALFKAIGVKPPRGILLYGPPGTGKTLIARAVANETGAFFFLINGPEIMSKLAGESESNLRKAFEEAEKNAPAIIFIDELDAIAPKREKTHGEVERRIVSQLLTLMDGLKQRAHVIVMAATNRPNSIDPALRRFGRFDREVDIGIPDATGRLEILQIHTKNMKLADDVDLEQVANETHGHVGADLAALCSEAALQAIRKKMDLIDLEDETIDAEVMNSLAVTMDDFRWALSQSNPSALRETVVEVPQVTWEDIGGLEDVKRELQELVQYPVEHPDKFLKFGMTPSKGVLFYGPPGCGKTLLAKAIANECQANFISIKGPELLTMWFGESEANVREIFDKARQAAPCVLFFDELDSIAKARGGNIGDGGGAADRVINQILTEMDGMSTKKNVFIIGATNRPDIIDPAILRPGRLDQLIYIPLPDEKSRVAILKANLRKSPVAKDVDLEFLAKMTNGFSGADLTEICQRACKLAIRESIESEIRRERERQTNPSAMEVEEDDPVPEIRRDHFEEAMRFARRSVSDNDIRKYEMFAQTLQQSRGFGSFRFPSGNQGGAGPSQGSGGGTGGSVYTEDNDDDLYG

B1: erasin-His, recombinant full-length human erasin (natural protein)
chain: MLWFQGAIPAAIATAKRSGAVFVVFVAGDDEQSTQMAASWEDDKVTEASSNSFVAIKIDTKSEACLQFSQIYPVVCVPSSFFIGDSGIPLEVIAGSVSADELVTRIHKVRQMHLLKSETSVANGSQSESSVSTPSASFEPNNTCENSQSRNAELCEIPPTSDTKSDTATGGESAGHATSSQEPSGCSDQRPAEDLNIRVERLTKKLEERREEKRKEEEQREIKKEIERRKTGKEMLDYKRKQEEELTKRMLEERNREKAEDRAARERIKQQIALDRAERAARFAKTKEEVEAAKAAALLAKQAEMEVKRESYARERSTVARIQFRLPDGSSFTNQFPSDAPLEEARQFAAQTVGNTYGNFSLATMFPRREFTKEDYKKKLLDLELAPSASVVLLPAGRPTASIVHSSSGDIWTLLGTVLYPFLAIWRLISNFLFSNPPPTQTSVRVTSSEPPNPASSSKSEKREPVRKRVLEKRGDDFKKEGKIYRLRTQDDGEDENNTWNGNSTQQM
B1: binds.
